{
  "source": "paper PMC4154870",
  "about": "“The Cofilin Phosphatase Slingshot Homolog 1 (SSH1) Links NOD1 Signaling to Actin Remodeling” (PLoS Pathogens, 2014)",
  "binders": {"B1": {"name": "Flag-NOD1 (receptor, human, UniProt Q9Y239 1-953, looked up)", "chain": "MEEQGHSEMEIIPSESHPHIQLLKSNRELLVTHIRNTQCLVDNLLKNDYFSAEDAEIVCACPTQPDKVRKILDLVQSKGEEVSEFFLYLLQQLADAYVDLRPWLLEIGFSPSLLTQSKVVVNTDPVSRYTQQLRHHLGRDSKFVLCYAQKEELLLEEIYMDTIMELVGFSNESLGSLNSLACLLDHTTGILNEQGETIFILGDAGVGKSMLLQRLQSLWATGRLDAGVKFFFHFRCRMFSCFKESDRLCLQDLLFKHYCYPERDPEEVFAFLLRFPHVALFTFDGLDELHSDLDLSRVPDSSCPWEPAHPLVLLANLLSGKLLKGASKLLTARTGIEVPRQFLRKKVLLRGFSPSHLRAYARRMFPERALQDRLLSQLEANPNLCSLCSVPLFCWIIFRCFQHFRAAFEGSPQLPDCTMTLTDVFLLVTEVHLNRMQPSSLVQRNTRSPVETLHAGRDTLCSLGQVAHRGMEKSLFVFTQEEVQASGLQERDMQLGFLRALPELGPGGDQQSYEFFHLTLQAFFTAFFLVLDDRVGTQELLRFFQEWMPPAGAATTSCYPPFLPFQCLQGSGPAREDLFKNKDHFQFTNLFLCGLLSKAKQKLLRHLVPAAALRRKRKALWAHLFSSLRGYLKSLPRVQVESFNQVQAMPTFIWMLRCIYETQSQKVGQLAARGICANYLKLTYCNACSADCSALSFVLHHFPKRLALDLDNNNLNDYGVRELQPCFSRLTVLRLSVNQITDGGVKVLSEELTKYKIVTYLGLYNNQITDVGARYVTKILDECKGLTHLKLGKNKITSEGGKYLALAVKNSKSISEVGMWGNQVGDEGAKAFAEALRNHPSLTTLSLASNGISTEGGKSLARALQQNTSLEILWLTQNELNDEVAESLAEMLKVNQTLKHLWLIQNQITAKGTAQLADALQSNTGITEICLNGNLIKPEEAKVYEDEKRIICF", "notes": "NOD1; the Flag-tagged plasmid is not described in the methods; source: HeLa, transiently transfected, in fixed cells"}},
  "molecular_target": "T1, GFP-SSH1 (human, UniProt Q8WYL5 1-1049)",
  "T1 construct": "Slingshot homolog 1 (SSH1); also called EGFP-SSH1; WT SSH1; source: HeLa, transiently transfected, in fixed cells",
  "T1 sequence (looked up)": "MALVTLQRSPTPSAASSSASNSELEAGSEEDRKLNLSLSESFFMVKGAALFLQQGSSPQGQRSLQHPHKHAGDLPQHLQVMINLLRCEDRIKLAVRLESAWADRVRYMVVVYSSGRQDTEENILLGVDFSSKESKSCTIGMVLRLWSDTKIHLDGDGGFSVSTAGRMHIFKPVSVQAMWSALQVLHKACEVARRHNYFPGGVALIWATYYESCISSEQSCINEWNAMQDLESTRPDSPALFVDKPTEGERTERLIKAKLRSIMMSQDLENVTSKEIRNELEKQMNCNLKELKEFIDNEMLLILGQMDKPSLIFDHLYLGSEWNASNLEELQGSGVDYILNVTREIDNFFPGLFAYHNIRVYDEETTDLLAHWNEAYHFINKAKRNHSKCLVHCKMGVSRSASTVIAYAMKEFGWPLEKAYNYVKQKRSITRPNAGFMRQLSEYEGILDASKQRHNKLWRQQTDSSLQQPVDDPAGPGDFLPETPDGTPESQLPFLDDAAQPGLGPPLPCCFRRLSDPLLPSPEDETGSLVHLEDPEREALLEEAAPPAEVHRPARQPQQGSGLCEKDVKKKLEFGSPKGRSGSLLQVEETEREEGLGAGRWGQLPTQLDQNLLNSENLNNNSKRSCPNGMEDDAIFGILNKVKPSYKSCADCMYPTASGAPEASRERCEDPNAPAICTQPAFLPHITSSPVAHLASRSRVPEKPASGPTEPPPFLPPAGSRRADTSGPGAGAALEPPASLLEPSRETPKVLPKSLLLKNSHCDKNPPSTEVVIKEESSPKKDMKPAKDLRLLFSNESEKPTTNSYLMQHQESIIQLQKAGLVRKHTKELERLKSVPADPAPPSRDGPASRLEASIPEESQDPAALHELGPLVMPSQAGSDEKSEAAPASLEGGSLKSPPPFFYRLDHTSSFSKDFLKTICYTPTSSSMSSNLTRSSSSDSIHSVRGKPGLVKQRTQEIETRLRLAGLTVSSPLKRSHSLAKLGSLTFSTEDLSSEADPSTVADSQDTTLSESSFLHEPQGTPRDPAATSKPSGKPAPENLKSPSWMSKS",
  "assay": "proximity ligation; in situ PLA (Duolink) in transiently transfected HeLa cells, fixed 24 h after transfection; rabbit GFP-specific and mouse Flag-specific primary antibodies; spot area per cell quantified by automated microscopy",
  "settings": "partners not purified",
  "data": [
    {"binder": "B1", "values": [
      {"measurement": "area covered by PLA spots, against neighbouring GFP-negative cells", "result": "~4", "unit": "fold"}
    ]}
  ]
}
